T1: Plate bound FcRH5 antigen (UniProt Q96RD9)
T1 sequence (looked up): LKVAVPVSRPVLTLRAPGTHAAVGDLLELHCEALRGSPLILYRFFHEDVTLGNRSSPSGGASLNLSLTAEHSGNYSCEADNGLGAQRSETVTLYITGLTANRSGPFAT

T2: Recombinant purified FcRH5 Ig-8 domain (UniProt Q96RD9 743-850, limits assumed)
T2 construct: domain: Ig8
T2 sequence (looked up): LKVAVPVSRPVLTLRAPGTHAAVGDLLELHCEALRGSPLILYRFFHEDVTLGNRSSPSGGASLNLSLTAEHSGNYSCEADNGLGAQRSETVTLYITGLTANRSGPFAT


Biological target: T1, Plate bound FcRH5 antigen
Assay: cell-based or functional assay

Binder | EC50 (µg/ml) of percentage Nur77 activation by plate bound FcRH5 antigen (µg/ml FcRH5 coating) | Nur77-mClover positive cells after 24 h 10 µg/ml (% upregulation)
Anti-FcRH5 VHH-CAR 66829 (VHH of AU60460), on Jurkat T cells (protein, not shown: large carriers) QVQLQESGGGLVQAGGSLRLSCAASGRTYNNYAMGWFRQAPGKEREFVAGISRSGGMTGYAESVKGRFTISRDNAKNMVFLQMNSLKPEDTAVYYCAAYVGGFSTARRDYSYWGQGTQVTVS | 1.43 | 44.5%
Anti-FcRH5 VHH-CAR 66823 (VHH of AU60385), on Jurkat T cells (protein, not shown: large carriers) QVQLQESGGGLVQAGGSLRLSCAASGRTFSTYAMAWFRQAPGKEREFVAAISGFGVVTYYADSVKGRFTISRDNAKNTLYLQMNGLKPEDTAVYYCAAGRRTSTNGGDYDYWGQGTQVTVS | 1.54 | 26.5%
Anti-FcRH5 VHH-CAR 66836 (VHH of AU60467), on Jurkat T cells (protein, not shown: large carriers) QVQLQESGGGLVQAGDSLRLSCAASGRTFDSRPMGWFRQAPGKEREFVGAVSWRGESTYYPDSVKGRFTISRDNAKRTVYLQMNSLKPEDTAVYYCAAGEPYSGTYYYRGRDYDYWGQGTQVTVS |  | 0.898%
Anti-FcRH5 VHH-CAR 66825 (VHH of AU60387), on Jurkat T cells (protein, not shown: large carriers) QVQLQESGGGLVQAGGSLRLSCAASGRTFSTYGMGWFRQAPGKEREFVAAISRSGGATAYAASVKGRFTISRDDVKNTLYLQMNSLKPEDTAVYHCAGTRRAFSTGLRDYDYWGQGIQVTVS | 2.42 | 39%
Anti-FcRH5 VHH-CAR 66835 (VHH of AU60466), on Jurkat T cells (protein, not shown: large carriers) QVQLQQSGGGLVQAGGSLSLSCTASGRSFSNYGMGWFRQAPGKEREFVAAIGMVGGLTAYSNSAKGRFTISRDNAKNTLYLQMNSLKPEDTAVYLCAAGRRFSTSSRDYDIWGQGTQVTVS | 0.977 | 45.5%
Anti-FcRH5 VHH-CAR 66833 (VHH of AU60464), on Jurkat T cells (protein, not shown: large carriers) QVQLQQSGGGLVQPGGSLRLSCAAPGNIFRLNGTGWYRQAPGKQRELVAHITSGGNTDYADSVKGRFTISRDNAKNTVYLQMNSLKPEDTAVYYCNAIPFRLSWGQGTQVTVS | 1.31 | 26.6%
Anti-FcRH5 VHH-CAR 66831 (VHH of AU60462), on Jurkat T cells (protein, not shown: large carriers) QVQLQESGGGLVQAGGSLRLSCTASGRTSSRAAMGWFRQAPGKEREFVAVISWSGGTTAYANSVKGRFTISRDNAKNTLYLQMNSLKPEDTAVYYCAAARIFTTARNDYDHWGQGTQVTVS |  | 2.59%
Anti-FcRH5 VHH-CAR 66842 (VHH of AU60370), on Jurkat T cells (protein, not shown: large carriers) QVQLQESGGGSVQPGGSLSLSCAASGFTFSNYAMSWVRQAPGKGPEWVAVINSDGGTASSAGSVRGRFTISRDNAKNTLYLQMNRLKPEDTAVYYCAANRGFCAGVRCLEYQYWGQGTQVTVS | 1.46 | 36.8%
Anti-FcRH5 VHH-CAR 66828 (VHH of AU60390), on Jurkat T cells (protein, not shown: large carriers) QVQLQQSGGGLVQAGDSLRLSCAASGRTFSNSTMGWFRQAPGKERKFVAVISWSGGTYAYAESVKGRFTISRDNAKNTVYLQMNSLKPEDTAVYYCAAARKGWSTRGDDYDYWGQGTQVTVS | 1.8 | 34.2%
Anti-FcRH5 VHH-CAR 66840 (VHH of AU60471), on Jurkat T cells (protein, not shown: large carriers) QVQLQESGGGLVQAGGSLRLSCAASGSIFSINAMGWYRQAPGKQRELVAFITSGGSTNYADSVKGRFTISRDNAKNTVYLQMNSLKPEDTAVYYCNALGGFVPSYGWGQGTQVTVS | 1.62 | 40.7%
Anti-FcRH5 VHH-CAR 66832 (VHH of AU60463), on Jurkat T cells (protein, not shown: large carriers) QVQLQESGGGLVQAGDSLRLSCAYSGRTFSSYAMGWFRQAPGKERVFVAAISRIGGVTTYAESVQGRFTISRDNAKNTLYLQMNALKPEDTAVYYCAAAGLVSISTTPNDYDYWGQGTQVTVS | 2 | 38.4%

Biological target: T2, Recombinant purified FcRH5 Ig-8 domain
Assay: SPR, Biacore 8k, VHH-mIgG2a Fc captured by anti-mouse kit on CM5, FcRH5 Ig8 as analyte (500 nM, 2-fold dilutions), 1:1 Langmuir fit, 25 C
Method: Recombinant anti-FcRH5 antibodies in mouse IgG2a format were captured on flow cell 2 on a Series S CM5 chip (GE Healthcare), functionalised with anti-mouse capture kit according to manufacturer's recommendations (GE Healthcare). Antibodies were captured to a density of 160 RU using a Biacore 8k instrument. HBS-P+ buffer was used as running buffer in all experimental conditions. Recombinant purified FcRH5 Ig-8 domain at known concentrations (500 nM with 2-fold serial dilutions) used as the ‘analyte’ and injected over the respective flow cells with 150s contact time and 500s dissociation at 30 μl/minute of flow rate with a constant temperature of 25° C. In each experiment, flow cell 1 was unmodified and used for reference subtraction. A ‘0 concentration’ sensogram of buffer alone was used as a double reference subtraction to factor for drift. Data were fit to a 1:1 Langmuir binding model. Since a capture system was used, a local maximal analytical response (Rmax) parameter was used for the data fitting in each case.

Binder | Kd | koff | kon
Anti-FcRH5 VHH-Fc AU60382 (AbVec.aFcRH5.dAb-MIgG2a-Fc.Clone.B07) (Fc fusion, not shown: murine IgG2a Fc domain) QVQLQESGGGLVQAGGSLIVSCAASGRTFSINAMAWFRQAPGKEREFVAAIGGSGRVSSTSYADFVKGRFTISRDNAKNTVYLRMNNLEPEDTAVYYCAARRDYLPFPPESYDYWGQGTQVTVA | 4.34 nM | 0.000515 s⁻¹ | 119000 M⁻¹ s⁻¹
Anti-FcRH5 VHH-Fc AU60465 (AbVec.aFcRH5.dAb-MIgG2a-Fc.Clone.E12) (Fc fusion, not shown: murine IgG2a Fc domain) QVQLQESGGGLVQAGGSLRLSCVVSRNIFSLNPMGWYRQAPGKQREMVAIITDGGSTNYADSVKGRFTISRDNVKNTVYLQMNALEPEDTAVYYCNRVGGLQTWAWGQGTQVTVSS | 4.54 nM | 0.00306 s⁻¹ | 673000 M⁻¹ s⁻¹
Anti-FcRH5 VHH-Fc AU60460 (AbVec.aFcRH5.dAb-MIgG2a-Fc.Clone.C10) (Fc fusion, VHH fused to murine IgG2a Fc; not shown: murine IgG2a Fc domain) QVQLQESGGGLVQAGGSLRLSCAASGRTYNNYAMGWFRQAPGKEREFVAGISRSGGMTGYAESVKGRFTISRDNAKNMVFLQMNSLKPEDTAVYYCAAYVGGFSTARRDYSYWGQGTQVTVS | 0.669 nM | 3.4e-05 s⁻¹ | 50800 M⁻¹ s⁻¹
Anti-FcRH5 VHH-Fc AU60385 (AbVec.aFcRH5.dAb-MIgG2a-Fc.Clone.B07 as printed in Table 3; Clone B11 in Table 9) (Fc fusion, not shown: murine IgG2a Fc domain) QVQLQESGGGLVQAGGSLRLSCAASGRTFSTYAMAWFRQAPGKEREFVAAISGFGVVTYYADSVKGRFTISRDNAKNTLYLQMNGLKPEDTAVYYCAAGRRTSTNGGDYDYWGQGTQVTVS | 6.56 nM | 0.000348 s⁻¹ | 53100 M⁻¹ s⁻¹
Anti-FcRH5 VHH-Fc AU60466 (AbVec.aFcRH5.dAb-MIgG2a-Fc.Clone.F01) (Fc fusion, not shown: murine IgG2a Fc domain) QVQLQQSGGGLVQAGGSLSLSCTASGRSFSNYGMGWFRQAPGKEREFVAAIGMVGGLTAYSNSAKGRFTISRDNAKNTLYLQMNSLKPEDTAVYLCAAGRRFSTSSRDYDIWGQGTQVTVS | 3.14 nM | 0.000469 s⁻¹ | 150000 M⁻¹ s⁻¹
Anti-FcRH5 VHH-Fc AU60464 (AbVec.aFcRH5.dAb-MIgG2a-Fc.Clone.E11) (Fc fusion, not shown: murine IgG2a Fc domain) QVQLQQSGGGLVQPGGSLRLSCAAPGNIFRLNGTGWYRQAPGKQRELVAHITSGGNTDYADSVKGRFTISRDNAKNTVYLQMNSLKPEDTAVYYCNAIPFRLSWGQGTQVTVS | 4.84 nM | 0.00289 s⁻¹ | 596000 M⁻¹ s⁻¹
Anti-FcRH5 VHH-Fc AU60462 (AbVec.aFcRH5.dAb-MIgG2a-Fc.Clone.E04) (Fc fusion, VHH fused to murine IgG2a Fc; not shown: murine IgG2a Fc domain) QVQLQESGGGLVQAGGSLRLSCTASGRTSSRAAMGWFRQAPGKEREFVAVISWSGGTTAYANSVKGRFTISRDNAKNTLYLQMNSLKPEDTAVYYCAAARIFTTARNDYDHWGQGTQVTVS | 5.8 nM | 0.000293 s⁻¹ | 50500 M⁻¹ s⁻¹
Anti-FcRH5 VHH-Fc AU60370 (AbVec.aFcRH5.dAb-MIgG2a-Fc.Clone.B04) (Fc fusion, not shown: murine IgG2a Fc domain) QVQLQESGGGSVQPGGSLSLSCAASGFTFSNYAMSWVRQAPGKGPEWVAVINSDGGTASSAGSVRGRFTISRDNAKNTLYLQMNRLKPEDTAVYYCAANRGFCAGVRCLEYQYWGQGTQVTVS | 3.64 nM | 0.00028 s⁻¹ | 76800 M⁻¹ s⁻¹
Anti-FcRH5 VHH-Fc AU60470 (AbVec.aFcRH5.dAb-MIgG2a-Fc.Clone.F11) (Fc fusion, not shown: murine IgG2a Fc domain) QVQLQESGGGLVQAEGSLRLSCAASGRTFSMYAMGWFRQAPGREREFVAAISGSARITYYGQSVKGRFTISRDNAKNTVYLQMNSLKPEDTAVYYCAASSTYTSTSGSSYNYWGQGTQVTVS | 0.255 nM | 1.81e-05 s⁻¹ | 70800 M⁻¹ s⁻¹
Anti-FcRH5 VHH-Fc AU60369 (AbVec.aFcRH5.dAb-MIgG2a-Fc.Clone.B03) (Fc fusion, VHH fused to murine IgG2a Fc, expi-CHO, Protein A purified; not shown: murine IgG2a Fc domain) QVQLQESGGGLVQAGGSLRLSCAASRSSFSNNAMGWYRQVPGKQRELVAFITKGGVTDYSDSVKGRFTISKDNAKNTVYLQMNSLKPEDTAVYYCNTIPFRSAWGQGTQVTVS | 4.77 nM | 0.00246 s⁻¹ | 516000 M⁻¹ s⁻¹
Anti-FcRH5 VHH-Fc AU60471 (AbVec.aFcRH5.dAb-MIgG2a-Fc.Clone.F12) (Fc fusion, VHH fused to murine IgG2a Fc; not shown: murine IgG2a Fc domain) QVQLQESGGGLVQAGGSLRLSCAASGSIFSINAMGWYRQAPGKQRELVAFITSGGSTNYADSVKGRFTISRDNAKNTVYLQMNSLKPEDTAVYYCNALGGFVPSYGWGQGTQVTVS | 0.757 nM | 0.00025 s⁻¹ | 330000 M⁻¹ s⁻¹
Anti-FcRH5 VHH-Fc AU60463 (AbVec.aFcRH5.dAb-MIgG2a-Fc.Clone.E07) (Fc fusion, not shown: murine IgG2a Fc domain) QVQLQESGGGLVQAGDSLRLSCAYSGRTFSSYAMGWFRQAPGKERVFVAAISRIGGVTTYAESVQGRFTISRDNAKNTLYLQMNALKPEDTAVYYCAAAGLVSISTTPNDYDYWGQGTQVTVS | 2.99 nM | 0.000161 s⁻¹ | 53800 M⁻¹ s⁻¹
